# Where a chain is given by its changes, count along the chain named.
# T1: cynomolgus tissue factor (cynomolgus TF, Sino Bio #90885-C08H) (cynomolgus monkey, UniProt P13726 33-251 (human entry))
# T1 construct: bought recombinant antigen; also called cyno TF
# T1 chain: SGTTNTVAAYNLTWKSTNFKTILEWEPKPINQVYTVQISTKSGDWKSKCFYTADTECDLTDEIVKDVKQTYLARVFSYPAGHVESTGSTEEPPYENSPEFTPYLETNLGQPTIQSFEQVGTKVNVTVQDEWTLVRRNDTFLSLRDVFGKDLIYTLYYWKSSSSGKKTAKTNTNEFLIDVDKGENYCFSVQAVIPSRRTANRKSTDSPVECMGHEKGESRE
# T2: cynomolgus tissue factor on HEK293T-cynoTF cells (cynomolgus monkey, UniProt P13726 33-294 (human entry))
# T2 construct: stably transfected HEK293T cells
# T2 chain: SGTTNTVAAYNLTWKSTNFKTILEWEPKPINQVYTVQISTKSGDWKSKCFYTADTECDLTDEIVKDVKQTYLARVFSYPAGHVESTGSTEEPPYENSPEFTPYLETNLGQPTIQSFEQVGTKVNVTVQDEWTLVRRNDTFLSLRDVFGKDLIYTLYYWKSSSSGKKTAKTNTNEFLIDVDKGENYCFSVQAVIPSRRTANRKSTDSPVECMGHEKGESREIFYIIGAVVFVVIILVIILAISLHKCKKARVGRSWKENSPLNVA
# B1: SRP2901-B05 (antibody, V domains shown)
# VH: QVQVQESGPGLVKPPGTLSLTCAVSGFSLSYYGVSWVRQPPGKGLEWIGTIDSSGRTYYNPSLKSRVTISNDNAPNTVSLKLSSVTAADTAVYYCARDFYGWNSGALDIWGQGTLVTVSS
# VL: DLQLTQSPSTLSASVGDRVTITCRASQSVYSNKYLSWYQQKPGKAPKLLIYKASTLASGVPSRFSGSGSGTEFTLTISSLQPDDFATYYCAAAYSDDSDTAFGQGTKVEIK
# notes: humanized rabbit antibody, variable regions fused to human IGHG1 and IGKC; also called 2842-G04 HC2/LC2
# B2: SRP2901-D03 (antibody, V domains shown)
# VH: EVQLVESGGGLVQPGGSLRLSCAASGFSISSYDMSWVRQAPGKGLEWIGIIGSNGRTYYPDSVKGRFTISRDNSKNTVTLQMNSLRAEDTAVYYCARGLYDGTGNIWGQGTLVTVSS
# VL: DLQMTQSPSSLSASVGDRVTITCRASQSVYGNNWLSWYQQKPGKAPKLLIYGASKLASGVPSRFSGSGSGTQFTLTISSLQPEDFATYYCQGTYYSGDWYFAFGQGTKVEIK
# notes: humanized rabbit antibody, variable regions fused to human IGHG1 and IGKC; also called 2842-B01 HC3/LC1
# B3: mAb 37: aTF_2842-B01_Hc3_Y180/F404TAG pAzMeF; aTF_2842-B01_Lc2 (antibody, IgG1, V domains shown)
# VH: B2 VH
# VL: ELVMTQSPPTLSLSPGERVTLSCRASQSVYGNNWLSWYQQKPGQAPRLLIYGASKLATSIPARFSGSGSGTQFTLTISSLQPEDFAVYYCQGTYYSGDWYFAFGQGTKVEIKR
# modifications: pAzMeF at Y180 and F404 (EU), * in the sequence
# notes: unconjugated full-length IgG1/kappa, cell-free expressed; also called 2842-B01 HC3/LC2; 2842-B01-HC3/LC2 Y180/F404
# B4: 2842-B01 HC1/LC2 (antibody, V domains shown)
# VH: B2 VH with E1Q, L4V, Q13K, V37I, P60A, D72N, N73T, S74N, K75E, T79Y
# VL: ELVMTQSPPTLSLSPGERVTLSCRASQSVYGNNWLSWYQQKPGQAPRLLIYGASKLATSIPARFSGSGSGTQFTLTISSLQPEDFAVYYCQGTYYSGDWYFAFGQGTKVEIK
# notes: humanized rabbit antibody, variable regions fused to human IGHG1 and IGKC
# B5: SRP2901-F01 (antibody, V domains shown)
# VH: B2 VH with E1Q, L4V, Q13K, V37I, P60A, D72N, N73T, S74N, K75E, T79Y
# VL: B2 VL with L2I, R24Q, Q72D, Q105G
# notes: humanized rabbit antibody, variable regions fused to human IGHG1 and IGKC; also called 2842-B01 HC1/LC3
# B6: SRP2901-E03 (antibody, V domains shown)
# VH: B2 VH
# VL: B4 VL
# notes: humanized rabbit antibody, variable regions fused to human IGHG1 and IGKC; also called 2842-B01 HC3/LC2
# B7: Conjugate 7: 2900-A02 F241/F404 LP2 (antibody, human IgG1, kappa)
# heavy: MEVQLVESGGGLVQPGGSLRLSCAASGFTISGYIIHWVRQAPGKGLEWVGYIDPSNGYTYYADSVKGRFTISADTSKNTAYLQMNSLRAEDTAVYYCARDDQSLSSPFDYWGQGTLVTVSSASTKGPSVFPLAPSSKSTSGGTAALGCLVKDYFPEPVTVSWNSGALTSGVHTFPAVLQSSGLYSLSSVVTVPSSSLGTQTYICNVNHKPSNTKVDKKVEPKSCDKTHTCPPCPAPELLGGPSVLFPPKPKDTLMISRTPEVTCVVVDVSHEDPEVKFNWYVDGVEVHNAKTKPREEQYNSTYRVVSVLTVLHQDWLNGKEYKCKVSNKALPAPIEKTISKAKGQPREPQVYTLPPSREEMTKNQVSLTCLVKGFYPSDIAVEWESNGQPENNYKTTPPVLDSDGSFLYSKLTVDKSRWQQGNVFSCSVMHEALHNHYTQKSLSLSPGK
# light: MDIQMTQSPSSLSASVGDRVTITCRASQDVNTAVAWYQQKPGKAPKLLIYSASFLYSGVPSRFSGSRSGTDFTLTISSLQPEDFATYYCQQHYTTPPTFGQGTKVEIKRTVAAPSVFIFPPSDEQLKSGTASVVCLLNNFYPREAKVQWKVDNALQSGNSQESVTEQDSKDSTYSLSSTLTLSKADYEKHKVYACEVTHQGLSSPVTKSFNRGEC
# modifications: pAMF at F241 and F404 (EU), each linked to LP2 (DBCO-beta-Glucuronide-PEG12-Exatecan)
# notes: antibody-drug conjugate, DAR about 4; also called Trastuzumab LC SerOpt
# Key:
# [1] = biological target: T3, human tissue factor (human TF, Lake Pharma) (human, UniProt P13726 33-251, limits assumed); assay: Biacore SPR, single-point off-rate (100 nM antigen), antibody captured on anti-Fc
# T3 construct: bought recombinant antigen; also called CD142
# Protocol: (§1) Anti-Fc polyclonal antibodies were immobilized onto a CM4 chip (Cytiva #BR100534) using amine coupling chemistry (Human Antibody Capture Kit, Cytiva #BR100839). The immobilization steps were carried out at a flow rate of 25 μL/min in 1×HBS-EP+buffer (Cytiva #BR100669). The sensor surfaces were activated for 7 min with a mixture of N-hydroxysuccinimide (NHS, 0.05 M) and 1-ethyl-3-(3-dimethylaminopropyl)-carbodiimide (EDC, 0.2 M). The anti-Fc polyclonal antibodies were injected over all 4 flow cells at a concentration of 25 μg/mL in 10 mM sodium acetate, pH 4.5, for 7 min. Ethanolamine (1 M, pH 8.5) was injected for 7 min to block any remaining activated groups.
# (§2) Off-rate and kinetic binding experiments were performed at 25° C. using 1×HBS-EP+buffer. Antibodies were injected over the anti-Fc surface at a concentration of 3 μg/mL for 12 seconds at a flow rate of 10 μL/min on flow cells 2, 3 and 4, followed by a buffer wash for 30 seconds at the same flow rate. Single point off-rate analysis was carried out using an antigen concentration of 100 nM. […] After capturing ligand (antibody) on the anti-Fc surface, the analyte (human TF, Lake Pharma; cynomolgus TF, Sino Bio #90885-C08H; mouse TF, R&D Systems #3178-PA) was bound for 180 seconds, followed by a 420 second dissociation phase at a flow rate of […]. Between each ligand capture and analyte binding cycle, regeneration was carried out using 2 injections of 10 mM glycine pH 2.0 for 30 seconds at 30 μL/min, followed by a 30 second buffer wash step.
# [2] = biological target: T1, cynomolgus tissue factor (cynomolgus …); assay: as above
# Protocol: as §1, §2
# [3] = biological target: T4, human tissue factor on cells (human, UniProt P13726 33-295); assay: flow cytometry on BxPC3 cells (TF positive), one-site fit of MFI
# T4 construct: cell-surface TF, transfected (HEK293T-humanTF) or endogenous (tumour lines, keratinocytes); the cell line is named under assay; also called HEK293T-humanTF; TF on BxPC3, primary human keratinocytes, NCI-H292, HCC1954, NCI-H1975
# Excerpt: (§3) HEK293T, BxPC3 cells (TF positive) and NCI-H1703 (TF negative) cells were obtained from ATCC (American Type Culture Collection) and maintained in DMEM: F12 (1:1), high glucose (Corning) supplemented with 10% heat-inactivated fetal bovine serum (ThermoScientific), 1× Penicillin/Streptomycin (Corning) and 2 mmol glutamax (Thermo Fisher Scientific). To generate cells that stably expressing human tissue factor (HEK293T-humanTF) or cynomolgus tissue factor (HEK293T-cynoTF), HEK293T cells were transfected with plasmid vectors that contain the corresponding protein sequence and stable clones were selected with puromycin.
# (§4) For a fluorescence-activated cell sorting (FACS) cell-binding assay, cells were collected by Accutase and counted by the Vi-CELL Cell Viability Analyzersharvested and, then re-suspended in FACS buffer (DPBS buffer supplemented with 1% bovine serum albumin). A total of 200,000 cells in 100 μL were incubated on ice with 100 μL of anti-TF antibodies in each well of a 96-well plate. Cells were washed twice with ice-cold FACS buffer and then incubated on ice for 60 mins with 5 μg/mL Alexa 647-labeled donkey anti-human Fc antibody (Jackson ImmunoResearch). Unstained cells and cells stained with secondary antibody alone were used as controls. Cells were washed twice with FACS buffer and analyzed using a BD FACS Canto system. Geometric mean fluorescence intensities (MFI) were fitted using non-linear regression analysis with one site specific binding equation on GraphPad Prism (GraphPad Software; La Jolla, CA).
# [4] = biological target: tissue factor reagent of the Tissue Factor Activity Assay Kit (Abcam #ab108906) (UniProt P13726 33-295, limits assumed); assay: cell-based or functional assay
# [5] = biological target: T3, human tissue factor (human TF, Lake …); assay: Biacore SPR kinetics, antibody captured on anti-Fc, 1:1 Langmuir fit
# Protocol: as §1, §2
# (§5) The data were fit with the Biacore T200 Evaluation software, using a 1:1 Langmuir binding model. KD (affinity, nM) was determined as a ratio of the kinetic rate constants calculated from the fits of the association and dissociation phases.
# [6] = biological target: T1, cynomolgus tissue factor (cynomolgus …); assay: as above
# Protocol: as §1, §2, §5
# [7] = biological target: T2, cynomolgus tissue factor on …; assay: flow cytometry on HEK293T-cynoTF cells, one-site fit of MFI
# Excerpt: as §3, §4
# [8] = biological target: T4, human tissue factor on cells; assay: flow cytometry on HEK293T-humanTF cells, one-site fit of MFI
# Excerpt: as §3, §4
# [9] = biological target: T4, human tissue factor on cells; assay: flow cytometry on primary human keratinocytes, one-site fit of MFI
# Protocol: To evaluate antibody binding activity of the anti-TF antibodies on the adult primary keratinocytes, a total of 100,000 keratinocytes per well were incubated on ice with serial dilutions of anti-TF antibodies in FACS buffer (PBS buffer supplemented with 1% bovine serum albumin, 0.05% sodium azide) for 60 minutes. Cells were washed twice with ice-cold FACS buffer and then incubated with 5 microgram/mL Alexa 647 labeled donkey anti-human Fc antibody (Jackson ImmunoResearch, West Grove, PA) on ice for another 60 minutes. Unstained cells and cells stained with secondary antibodies alone were used as controls. Samples were then washed twice using FACS buffer and analyzed using an Attune flow cytometer (Thermo Fisher). Geometric mean fluorescence intensities were fitted using non-linear regression analysis with one site specific binding equation on GraphPad Prism.
# [10] = biological target: T3, human tissue factor (human TF, Lake …); assay: Biacore SPR kinetics, ADC captured on anti-Fc, 1:1 Langmuir fit
# Protocol: (§6) Anti-Fc polyclonal antibodies were immobilized onto a CM4 chip (Cytiva #BR100534) using amine coupling chemistry (Human Antibody Capture Kit, Cytiva #BR100839). The immobilization steps were carried out at a flow rate of […] in 1×HBS-EP+buffer (Cytiva #BR100669). The sensor surfaces were activated for 7 min with a mixture of NHS (0.05 M) and EDC (0.2 M). The Anti-Fc antibodies were injected over all 4 flow cells at a concentration of 25 μg/ml in 10 mM sodium acetate, pH 4.5, for 7 min. Ethanolamine (1 M, pH 8.5) was injected for 7 min to block any remaining activated groups. […] Off-rate and kinetic binding experiments were performed at 25° C. using 1×HBS-EP+buffer. Antibodies or ADCs were injected over the anti-Fc surface at a concentration of 3 μg/mL for 12 seconds at a flow rate of 10 μL/min on flow cells 2, 3 and 4, followed by a buffer wash for 30 seconds at the same flow rate. […] After capturing ligand (antibody) on the anti-Fc surface, the analyte (human TF, Lake Pharma; cynomolgus TF, Sino Bio #90885-C08H; mouse TF, R&D Systems #3178-PA) was bound for 180 seconds, followed by a 420 second dissociation phase at a flow rate of 50 μL/min. Between each ligand capture and analyte binding cycle, regeneration was carried out using 2 injections of 10 mM Glycine pH 2.0 for 30 seconds at 30 μL/min, followed by a 30 second buffer wash step. The data was fit with the Biacore T200 Evaluation software, using a 1-1 Langmuir binding model. KD (affinity, nM) was determined as a ratio of the kinetic rate constants calculated from the fits of the association and dissociation phases.
# [11] = biological target: T1, cynomolgus tissue factor (cynomolgus …); assay: as above
# Protocol: as §6
# tissue factor reagent of the Tissue Factor Activity Assay Kit (Abcam #ab108906), sequence (P13726 33-295 limits assumed): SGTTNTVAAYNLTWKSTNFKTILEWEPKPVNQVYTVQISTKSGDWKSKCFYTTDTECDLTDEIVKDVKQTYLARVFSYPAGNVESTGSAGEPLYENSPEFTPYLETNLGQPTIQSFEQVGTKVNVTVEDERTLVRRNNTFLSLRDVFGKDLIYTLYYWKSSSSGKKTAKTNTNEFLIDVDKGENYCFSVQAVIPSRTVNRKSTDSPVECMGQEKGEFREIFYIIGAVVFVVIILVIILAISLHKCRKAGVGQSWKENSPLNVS
Binder,koff [1] [s⁻¹],koff [2] [s⁻¹],Bmax (MFI) [3] [MFI],Kd [3] [nM],"FX conversion (% inhibition), 1000 nM antibody [4] [%]",other results
B1,0.000736,0.0017,42800,0.389,0.62,–
B2,0.000416,0.00187,29100,0.344,-1.6,–
B3,–,–,–,–,–,Kd [5]: 7.3 nM; koff [5]: 0.000418 s⁻¹; kon [5]: 57200 M⁻¹ s⁻¹; Kd [6]: 15.6 nM; koff [6]: 0.00113 s⁻¹; kon [6]: 72400 M⁻¹ s⁻¹; Bmax (MFI) [7]: 493000 MFI; Kd [7]: 3.9 nM; Bmax (MFI) [8]: 334000 MFI; Kd [8]: 3.9 nM; Kd [9]: 24 nM
B4,0.000691,0.00142,–,–,-0.99,–
B5,0.00054,0.00117,25400,0.61,0.77,–
B6,0.000361,0.000782,35200,0.386,-0.84,–
B7,–,–,–,–,–,Kd [10]: 4.11 nM; koff [10]: 0.00209 s⁻¹; kon [10]: 508000 M⁻¹ s⁻¹; Kd [11]: 1.77 nM; koff [11]: 0.00103 s⁻¹; kon [11]: 582000 M⁻¹ s⁻¹

# Reference: patent US20250122306A1 (SUTRO BIOPHARMA, published 2025)
